We go through 1 molecule from US20170348397A1 (Janssen / Centocor, published 2017).

The target of test [1] is T1, Cynomolgus Serum Albumin (cynomolgus monkey, UniProt A2V9Z4 25-608).
T1 construct: also called Macaca Fascicularis (cynomolgus monkey) serum albumin
The experiment in a line: IMAC pull-down from normal serum, SDS-PAGE with Coomassie stain. The protocol:
(§1) To evaluate the functionality of binders, selected FN3 domains were tested for their ability to complex with endogenous albumin in normal serum. To ensure that albumin binding was preserved when selected FN3 domains were attached at either the amino or carboxy terminus of another FN3 domain, bivalent FN3 genes were prepared to generate constructs ALB18, ALB 30, ALB 21, ALB33, ALB34 and ALB35 (Table 6).
(§2) C-terminally His6-tagged (SEQ ID NO: 72) bivalent FN3 domains (0.25-2.0 mg/mL in DPBS without calcium or magnesium) were mixed in a 1:1 volumetric ratio with normal serum and incubated for 1 hour at room temperature to allow binding to endogenous albumin in the serum. His6-tagged (SEQ ID NO: 72) FN3 domain-albumin complexes were recovered from serum via immobilized metal affinity chromatography (IMAC) using 200+ PhyTip columns containing a 5 μL resin bed (PureSpeed™ Protein Tip IMAC from Rainin Instrument LLC; Oakland, Calif.) pre-equilibrated with 50 mM Tris, pH 7.0 containing 500 mM NaCl and 10 mM imidazole. Unbound serum proteins were removed by exhaustively washing the resin with equilibration buffer. Bound protein was eluted with 25-100 μL of elution buffer (50 mM Tris, pH 7.0 containing 500 mM NaCl and 250 mM imidazole, pH 7.5). Eluates were analyzed by SDS-PAGE for the co-precipitation of albumin. SDS-PAGE gels were stained with colloidal Coomassie. […]

The target in test [2] is T2, Human Serum Albumin (human, UniProt P02768 25-609).
T2 construct: also called HSA
T2 sequence (P02768 25-609 limits assumed): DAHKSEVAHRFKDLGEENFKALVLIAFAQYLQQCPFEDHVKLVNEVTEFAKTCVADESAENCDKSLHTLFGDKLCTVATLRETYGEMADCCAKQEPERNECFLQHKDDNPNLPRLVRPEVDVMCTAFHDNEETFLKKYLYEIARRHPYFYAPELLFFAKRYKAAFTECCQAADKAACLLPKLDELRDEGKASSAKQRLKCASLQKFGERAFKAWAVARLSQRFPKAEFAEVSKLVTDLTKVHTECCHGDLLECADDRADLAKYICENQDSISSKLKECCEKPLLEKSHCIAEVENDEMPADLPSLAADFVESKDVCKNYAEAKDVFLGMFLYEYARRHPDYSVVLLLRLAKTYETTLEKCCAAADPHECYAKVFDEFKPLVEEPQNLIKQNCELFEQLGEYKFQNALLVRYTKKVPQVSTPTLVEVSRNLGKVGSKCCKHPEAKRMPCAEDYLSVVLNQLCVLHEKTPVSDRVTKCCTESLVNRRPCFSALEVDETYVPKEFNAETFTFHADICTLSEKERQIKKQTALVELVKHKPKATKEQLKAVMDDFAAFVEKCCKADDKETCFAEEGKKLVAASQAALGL
Described as above. On the procedure:
as §1, §2

T1 sequence (A2V9Z4 25-608 limits assumed): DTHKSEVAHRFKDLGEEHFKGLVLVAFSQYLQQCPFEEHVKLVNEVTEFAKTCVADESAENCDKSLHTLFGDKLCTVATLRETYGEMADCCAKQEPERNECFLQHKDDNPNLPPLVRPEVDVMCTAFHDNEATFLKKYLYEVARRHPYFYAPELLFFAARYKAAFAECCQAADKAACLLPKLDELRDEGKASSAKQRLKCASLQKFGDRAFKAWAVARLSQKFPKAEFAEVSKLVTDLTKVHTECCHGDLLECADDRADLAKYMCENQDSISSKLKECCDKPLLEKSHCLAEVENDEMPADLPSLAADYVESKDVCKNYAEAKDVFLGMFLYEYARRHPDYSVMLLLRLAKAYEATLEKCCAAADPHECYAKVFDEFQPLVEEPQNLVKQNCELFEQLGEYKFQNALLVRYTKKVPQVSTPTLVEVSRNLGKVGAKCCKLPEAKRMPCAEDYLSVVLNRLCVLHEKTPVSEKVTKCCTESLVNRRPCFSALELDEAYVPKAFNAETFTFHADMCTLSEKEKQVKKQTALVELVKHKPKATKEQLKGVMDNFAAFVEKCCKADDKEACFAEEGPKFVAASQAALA

B1: Tencon25 (designed binder)
chain: LPAPKNLVVSEVTEDSARLSWTAPDAAFDSFLIQYQESEKVGEAIVLTVPGSERSYDLTGLKPGTEYTVSIYGVKGGHRSNPLSAIFTT
notes: Negative control of the pull-down; also called Tc25; TC25
Consider B1, for which the binding result in test [1] and in test [2] was “no binding” throughout.
